Substitutions are numbered along the chain they refer to.
B1: VHH2 (VHH)
VHH: QVQLQESGGGSVQAGGSLRLSCAASGFTISRYCMGWLRQAPGKQREGVAIIERDGRTGYADSVKGRFTISKDNAKNTLYLQMNSLKPEDTAMYYCGAIEGSCRPDFGYRGQGTQVTVSS
notes: Camel VHH, tested as a periplasmic extract of a phage clone; also called anti-human IL12Rb2 VHH2; hIL12Rb2 VHH; not shown: HA/His tag encoded by the pMECS phagemid
B2: VHH1 (VHH)
VHH: B1 VHH with I29V, S30T
notes: Camel VHH, tested as a periplasmic extract of a phage clone; also called anti-human IL12Rb2 VHH1; hIL12Rb2 VHH; not shown: HA/His tag encoded by the pMECS phagemid
B3: VHH4 (VHH)
VHH: B1 VHH with A23V, E88G
notes: Camel VHH, tested as a periplasmic extract of a phage clone; also called anti-human IL12Rb2 VHH4; hIL12Rb2 VHH; not shown: HA/His tag encoded by the pMECS phagemid
B4: VHH8 (VHH)
VHH: B1 VHH with I29V, D54E
notes: Camel VHH, tested as a periplasmic extract of a phage clone; also called anti-human IL12Rb2 VHH8; hIL12Rb2 VHH; not shown: HA/His tag encoded by the pMECS phagemid
B5: VHH9 (VHH)
VHH: B1 VHH with Y94F
notes: Camel VHH, tested as a periplasmic extract of a phage clone; also called anti-human IL12Rb2 VHH9; hIL12Rb2 VHH; not shown: HA/His tag encoded by the pMECS phagemid
B6: VHH10 (VHH)
VHH: B1 VHH with I29V, S30T
notes: Camel VHH, tested as a periplasmic extract of a phage clone; also called anti-human IL12Rb2 VHH10; hIL12Rb2 VHH; not shown: HA/His tag encoded by the pMECS phagemid
B7: VHH11 (VHH)
VHH: B1 VHH with I29V, N73D
notes: Camel VHH, tested as a periplasmic extract of a phage clone; also called anti-human IL12Rb2 VHH11; hIL12Rb2 VHH; not shown: HA/His tag encoded by the pMECS phagemid
B8: VHH13 (VHH)
VHH: B1 VHH with R31K
notes: Camel VHH, tested as a periplasmic extract of a phage clone; also called anti-human IL12Rb2 VHH13; hIL12Rb2 VHH; not shown: HA/His tag encoded by the pMECS phagemid
B9: VHH17 (VHH)
VHH: B1 VHH with F27L
notes: Camel VHH, tested as a periplasmic extract of a phage clone; also called anti-human IL12Rb2 VHH17; hIL12Rb2 VHH; not shown: HA/His tag encoded by the pMECS phagemid
B10: VHH7 (VHH)
VHH: QVQLQESGGGSVQAGGSLRLSCAASGVTYSRYCMGWFRQAPGLERERVATIYSRGIITYYTDSVKGRFTISQDSAKKTVYLQMNSLKPEDTAMYYCAATRETYGGSGDCDYESVYNYWAQGTQVTVSS
notes: Camel VHH, tested as a periplasmic extract of a phage clone; also called anti-human IL12Rb2 VHH7; hIL12Rb2 VHH; not shown: HA/His tag encoded by the pMECS phagemid
B11: VHH12 (VHH)
VHH: B10 VHH with S85M
notes: Camel VHH, tested as a periplasmic extract of a phage clone; also called anti-human IL12Rb2 VHH12; hIL12Rb2 VHH; not shown: HA/His tag encoded by the pMECS phagemid
B12: VHH14 (VHH)
VHH: B10 VHH with T50H, D110G
notes: Camel VHH, tested as a periplasmic extract of a phage clone; also called anti-human IL12Rb2 VHH14; hIL12Rb2 VHH; not shown: HA/His tag encoded by the pMECS phagemid
B13: VHH16 (VHH)
VHH: B10 VHH with T50H, D110S, Y117H
notes: Camel VHH, tested as a periplasmic extract of a phage clone; also called anti-human IL12Rb2 VHH16; hIL12Rb2 VHH; not shown: HA/His tag encoded by the pMECS phagemid
B14: VHH3 (VHH)
VHH: QVQLQESGGGSVQAGGSLRLSCTASGLTFDDVEMAWYRQGPGDDYDLVSSINTDSRVYYVDSVKDRFTISRDNAKNTLYLQMNNLKPEDTAVYYCAADPWGGDLRGYPNYWGQGTQVTVSS
notes: Camel VHH, tested as a periplasmic extract of a phage clone; also called anti-human IL12Rb2 VHH3; hIL12Rb2 VHH; not shown: HA/His tag encoded by the pMECS phagemid
B15: VHH5 (VHH)
VHH: QVQLQESGGGLVQPGGSLKLSCAASGFTFSTYAMSWVRQAPGKEPEWISRISSGGGNTYYADAVKGRFAISRDNAKNTLYLQLNSLKTEDTAIYVCTMDDYYGGSWHPISRGHGTQVTVSS
notes: Camel VHH, tested as a periplasmic extract of a phage clone; also called anti-human IL12Rb2 VHH5; hIL12Rb2 VHH; not shown: HA/His tag encoded by the pMECS phagemid

molecular target: T1, extracellular domain of human IL12Rb2 (amino acids 24-622 of hIL12Rb2, UniProt Q99665) (human, UniProt Q99665 24-622); experiment: periplasmic extract ELISA on antigen-coated plate; positive if A450 at least threefold over PBS-coated control
T1 construct: also called hIL12Rb2 ECD; hIL12Rb2-ECD
T1 sequence: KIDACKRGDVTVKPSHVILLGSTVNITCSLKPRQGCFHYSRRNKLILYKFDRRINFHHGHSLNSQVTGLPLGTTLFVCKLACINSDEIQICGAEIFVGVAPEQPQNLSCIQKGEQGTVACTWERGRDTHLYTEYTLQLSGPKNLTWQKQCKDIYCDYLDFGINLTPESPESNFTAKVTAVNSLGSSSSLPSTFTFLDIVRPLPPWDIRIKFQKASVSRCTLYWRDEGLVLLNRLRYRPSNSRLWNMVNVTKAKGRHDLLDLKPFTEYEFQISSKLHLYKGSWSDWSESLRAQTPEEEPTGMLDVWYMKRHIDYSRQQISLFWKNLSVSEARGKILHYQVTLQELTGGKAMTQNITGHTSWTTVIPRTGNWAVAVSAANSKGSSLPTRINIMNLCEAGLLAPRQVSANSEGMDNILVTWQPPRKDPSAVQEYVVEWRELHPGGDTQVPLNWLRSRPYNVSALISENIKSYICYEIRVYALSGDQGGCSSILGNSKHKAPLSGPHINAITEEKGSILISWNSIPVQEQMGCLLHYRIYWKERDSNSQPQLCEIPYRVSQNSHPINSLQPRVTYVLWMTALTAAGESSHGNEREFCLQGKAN
Procedure: Upon completion of the biopanning of Example 3, three 96-well plates of individual phage clones were isolated in order to perform periplasmic extract ELISA (PE-ELISA) on IL12Rb2 coated plates to identify positive VHH binders that selectively bound IL12Rb2. A 96-well plate was coated with IL12Rb2 and PBS under the same conditions. Next, wells were blocked at 37° C. for 1 h. Then, 100 μl of extracted antibodies was added to each well and incubated for 1 h. Subsequently, 100 μl of anti-tag polyclonal antibody conjugated to HRP was added to each well and incubated at 37° C. for 1 h. Plates were developed with TMB substrate. The reaction was stopped by the addition of H2SO4. Absorbance at 450 nm was read on a microtiter plate reader. Antibodies with absorbance of the antigen-coated well at least threefold greater than PBS-coated control are VHHs that specifically bind to IL 12Rb2. Positive clones were sequenced, and sequences analyzed to identify unique clonotypes

Binder	binding result
B1	binds
B2	binds
B3	binds
B4	binds
B5	binds
B6	binds
B7	binds
B8	binds
B9	binds
B10	binds
B11	binds
B12	binds
B13	binds
B14	binds
B15	binds

Reference: patent publication US20230357414A1 (SYNTHEKINE, published 2023)
